No end group written: not given here.
Columns and labels:
[1] = target: T1, human GPR75 (372-540 aa region), His-tagged (human, UniProt O95800 372-540); test: SPR (Nicoya OpenSPR), His-tagged GPR75 on NTA sensor, one-to-one fit; curve at 123.23 µM
T1 construct: range 372-540; also called G-Protein Receptor 75; not shown: His tag

[2] = target: T1, human GPR75 (372-540 aa region), …; test: SPR (Nicoya OpenSPR), His-tagged GPR75 on NTA sensor, one-to-one fit; curve at 4.93 µM
[3] = target: T1, human GPR75 (372-540 aa region), …; test: SPR (Nicoya OpenSPR), His-tagged GPR75 on NTA sensor, one-to-one fit; curve at 49.3 µM
[4] = target: T1, human GPR75 (372-540 aa region), …; test: SPR (Nicoya OpenSPR), His-tagged GPR75 on NTA sensor, one-to-one fit; curve at 4.9 µM
[5] = target: T1, human GPR75 (372-540 aa region), …; test: SPR (Nicoya OpenSPR), His-tagged GPR75 on NTA sensor, one-to-one fit; second curve at 12.3 µM
[6] = target: T1, human GPR75 (372-540 aa region), …; test: SPR (Nicoya OpenSPR), His-tagged GPR75 on NTA sensor, one-to-one fit; curve at 12.3 µM
[7] = target: T1, human GPR75 (372-540 aa region), …; test: SPR (Nicoya OpenSPR), His-tagged GPR75 on NTA sensor, one-to-one fit; curve at 92.4 µM
[8] = target: T1, human GPR75 (372-540 aa region), …; test: SPR (Nicoya OpenSPR), His-tagged GPR75 on NTA sensor, one-to-one fit; second curve at 49.3 µM
[9] = target: T1, human GPR75 (372-540 aa region), …; test: SPR (Nicoya OpenSPR), His-tagged GPR75 on NTA sensor, one-to-one fit; curve at 24.65 µM

Measured: koff

T1 sequence (O95800 372-540 limits assumed): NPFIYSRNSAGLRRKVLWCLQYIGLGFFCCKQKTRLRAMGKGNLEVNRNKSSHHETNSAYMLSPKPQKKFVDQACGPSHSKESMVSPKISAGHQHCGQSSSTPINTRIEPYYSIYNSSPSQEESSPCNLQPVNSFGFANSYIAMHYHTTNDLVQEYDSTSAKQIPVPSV

B1: SU75-37 (peptide)
peptide: TFTSDLSKYLEEEVREFIWLKNGGPSDVNTDRPGLLDLK-NH2
notes: Synthetic, non-naturally occurring peptide; also called Drug37; SUODN37
0.0141 s⁻¹: all assays above

— patent US20260055141A1, “COMPOSITIONS AND METHODS FOR CONTROLLING FOOD INTAKE, ENERGY EXPENDITURE, AND BODY WEIGHT FOR THE TREATMENT OF OBESITY AND METABOLIC DISEASES” (The Trustees of the University of Pennsylvania, priority 2022, published 2026)
